Laboratory results as given in US20230348609A1 (WUXI BIOLOGICS SHANGHAI, published 2023).

Key:
[1] = molecular target: T1, human CD40, full-length, on cells (human, UniProt P25942 21-277); assay: cell-based or functional assay
[2] = molecular target: T1, human CD40, full-length, on cells; assay: cell-based or functional assay; remark: listed apart in the source
[3] = molecular target: T1, human CD40, full-length, on cells; assay: cell-based or functional assay; remark: listed apart in the source
[4] = molecular target: T1, human CD40, full-length, on cells; assay: FACS on A431 cells (human CD40 binding assay); A431 cells
Procedure: (§1) W352-CHOK1.hPro1.A7 (1×10⁵ cells/well), Raji (1×10⁵ cells/well) or A431 (5×10⁴ cells/well) cells were incubated with various concentrations of W3525 antibody (3-fold serially diluted from 100 nM to 0.0051 nM, or 5-fold serially diluted from 100 nM to 0.00128 nM) at 4° C. for 1 hour. After washing with 1×PBS/1% BSA, the secondary antibody, Alex647-labeled goat anti-human IgG (1:250) or R-PE-labeled goat anti-human IgG (1:150) was added and incubated with cells at 4° C. in dark for 1 hour. Anti-human CD40 antibodies BMK4 and BMK5 were used as positive controls. Human IgG1 and IgG2 isotype antibodies were used as isotype controls. The cells were then washed and re-suspended in 1×PBS/1% BSA. MFI of the cells was measured by a flow cytometer and analyzed by FlowJo. GraphPad Prism was used to plot the log of antibody concentration (x-axis) versus MFI (y-axis). The EC50 values were determined using four-parameter dose-response curve model.
(§2) The binding result of W3525 on W352-CHOK1.hPro1.A7, Raji and A431 cells are shown in FIGS. 1, 2 and 3, respectively.

[5] = molecular target: T1, human CD40, full-length, on cells; assay: FACS on Raji cells (human CD40 binding assay); Raji cells
Procedure: as §1, §2

[6] = molecular target: T2, recombinant human OX40 extracellular domain (human, UniProt P43489 29-214); assay: ELISA, plate coated with 1 ug/mL recombinant extracellular domain
T2 construct: extracellular domain
T2 sequence (looked up): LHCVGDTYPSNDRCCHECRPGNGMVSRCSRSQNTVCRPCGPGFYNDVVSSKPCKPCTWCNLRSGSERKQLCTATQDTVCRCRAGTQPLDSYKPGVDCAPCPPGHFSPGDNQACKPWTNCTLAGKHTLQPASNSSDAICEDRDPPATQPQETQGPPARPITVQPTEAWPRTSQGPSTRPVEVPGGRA
Procedure: (§3) Plate was pre-coated with 1 μg/mL of recombinant human CD40, OX40, 4-1BB, GITR or BCMA extracellular domain in 100 μL coating buffer (0.02 M Na₂CO₃ and 0.18 M NaHCO₃, pH9.2) per well at 4° C. overnight. Next day, the plate was washed with 1×PBST for one time. After 1-hour blocking using 200 μL of 1×PBS/2% BSA, the plate was washed using 1×PBST for 3 times. W3525 was added to the plate at a concentration of 66.7 nM and incubated at ambient temperature for 1 hour. Anti-CD40 antibodies BMK4 and BMK5, anti-OX40 antibody MEDI0562, anti-4-1BB antibody BMS-663513, anti-GITR antibody INCAGN01876 and anti-BCMA antibody EM801 were used as positive controls, respectively. Human IgG2 isotype antibody was used as isotype control. After incubation, the plate was washed using 1×PBST for 3 times. HRP-labeled goat anti-human IgG antibody diluted in 1×PBS/2% BSA at a ratio of 1:5000 was added and incubated for 1 hour. After washing with 1×PBST for 6 times, the color was developed by dispensing 100 μL of TMB substrate, and then reaction was stopped by adding 100 μL of 2M HCl. Absorbance was read at 450 nm and 540 nm using a microplate spectrophotometer. GraphPad Prism was used to plot the antibody concentration (x-axis) versus absorbance (y-axis). All samples were tested in duplicate.

[7] = molecular target: T3, recombinant human 4-1BB extracellular domain (human, UniProt Q07011 24-186); assay: as above
T3 construct: extracellular domain
T3 sequence (Q07011 24-186): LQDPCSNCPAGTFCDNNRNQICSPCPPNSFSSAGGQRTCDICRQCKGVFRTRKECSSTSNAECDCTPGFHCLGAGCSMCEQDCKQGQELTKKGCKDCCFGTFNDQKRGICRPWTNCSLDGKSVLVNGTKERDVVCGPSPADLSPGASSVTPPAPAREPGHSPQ
Procedure: as §3

[8] = molecular target: T4, Human GITR protein (His tag, ECD) (human, UniProt Q9Y5U5 26-162); assay: as above
T4 construct: extracellular domain; Bought protein
T4 sequence (looked up): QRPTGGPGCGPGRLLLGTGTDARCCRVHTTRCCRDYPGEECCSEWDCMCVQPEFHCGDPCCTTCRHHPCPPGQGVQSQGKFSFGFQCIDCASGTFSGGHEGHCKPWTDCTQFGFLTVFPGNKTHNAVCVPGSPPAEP
Procedure: as §3

[9] = molecular target: T5, recombinant human BCMA extracellular domain (human, UniProt Q02223 1-54); assay: as above
T5 construct: extracellular domain
T5 sequence (looked up): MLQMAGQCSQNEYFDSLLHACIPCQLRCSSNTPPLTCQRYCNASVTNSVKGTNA
Procedure: as §3

[10] = molecular target: T6, CD40 protein, rat, recombinant (His tag) (rat, UniProt A6JXD6 20-193); assay: ELISA, plate coated with 1 ug/mL recombinant CD40 extracellular domain
T6 construct: Bought protein; also called rat CD40; not shown: C-terminal His tag of the vendor's construct (SinoBiological 80151-R08H)
T6 sequence: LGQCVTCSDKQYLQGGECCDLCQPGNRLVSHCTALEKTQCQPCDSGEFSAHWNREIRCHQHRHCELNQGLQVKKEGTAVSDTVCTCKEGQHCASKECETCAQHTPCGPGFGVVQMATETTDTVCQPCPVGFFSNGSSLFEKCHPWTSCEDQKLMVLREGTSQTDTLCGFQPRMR
Procedure: as §3
(§4) Plate was pre-coated with 1 μg/mL of recombinant human, cynomolgus monkey, mouse, canine or rat CD40 extracellular domain in 100 μL coating buffer per well at 4° C. overnight. Then the ELISA procedure was performed as described above. Anti-human CD40 antibodies BMK4 and BMK5 were used as positive controls. Human IgG1 and IgG2 isotype antibodies were used as isotype controls.

[11] = molecular target: T7, CD40 protein, canine, recombinant (His tag) (canine, UniProt Q7YRL5 21-194); assay: as above
T7 construct: extracellular domain; Bought protein; also called canine CD40
T7 sequence (looked up): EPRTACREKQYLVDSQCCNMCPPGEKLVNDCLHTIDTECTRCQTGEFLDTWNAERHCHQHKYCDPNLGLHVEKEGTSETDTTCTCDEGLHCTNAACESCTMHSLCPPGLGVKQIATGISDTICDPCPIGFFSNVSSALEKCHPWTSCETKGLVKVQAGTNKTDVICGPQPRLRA
Procedure: as §3, §4

W352-mPro1.ECD.His = molecular target: T8, W352-mPro1.ECD.His (mouse, UniProt P27512 20-193); assay: as above
T8 construct: range 20-193; The ELISA of 3.5 says only 'recombinant mouse CD40 extracellular domain'; also called Mouse CD40 extracellular domain, His tag; mouse CD40; not shown: His tag
T8 sequence (P27512 20-193 limits assumed): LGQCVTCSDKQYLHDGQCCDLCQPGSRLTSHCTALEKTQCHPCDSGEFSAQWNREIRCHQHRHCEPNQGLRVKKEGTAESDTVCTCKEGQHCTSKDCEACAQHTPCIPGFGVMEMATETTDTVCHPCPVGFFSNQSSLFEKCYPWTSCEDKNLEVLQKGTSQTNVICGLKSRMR
Procedure: as §3, §4

[12] = molecular target: T9, cynomolgus monkey CD40 on transiently transfected 293F cells (cynomolgus monkey, UniProt G7PG38 21-278); assay: FACS on 293F cells transiently transfected with cynomolgus monkey CD40
T9 construct: whole, on cells; also called cell surface cynomolgus monkey CD40
Procedure: Cynomolgus monkey CD40 transiently transfected 293F cells (2×10⁵ cells/well) were incubated with various concentrations of W3525 (3-fold serially diluted from 200 nM to 0.0102 nM) at 4° C. for 1 hour. After washing with 1×PBS/1% BSA, a secondary antibody, R-PE-labeled goat anti-human IgG (1:150) was added and incubated with cells at 4° C. in dark for 1 hour. The cells were washed and suspended and the MFI and EC50 values were determined as described above.

[13] = molecular target: T1, human CD40, full-length, on cells; assay: FACS competition on W352-CHOK1.hPro1.A7 cells; competitor W352-hpro1L1.ECD.mFc at 5 ug/mL
Procedure: W352-CHOK1.hPro1.A7 cells were plated in a 96-well plate at a density of 1×10⁵ cells/well. A constant concentration of W352-hPro1L1.EECD.mFc (5 μg/mL) diluted in 1×PBS/1% BSA was added to the cells, followed by serially diluted antibodies (3-fold serially diluted from 60 nM to 0.0274 nM in 1×PBS/1% BSA), and mixed well. The plate was incubated at 4° C. for 1 hour.

W352-cynoPro1.ECD.His = molecular target: T10, W352-cynoPro1.ECD.His (cynomolgus monkey, UniProt G7PG38 21-193); assay: SPR, Biacore T200; antibody captured by goat anti-human Fc; analyte W352-cynoPro1.ECD.His
T10 construct: range 21-193; Also used for the 'recombinant cynomolgus monkey CD40 extracellular domain' coated in the ELISA of 3.5; also called Cynomolgus monkey CD40 extracellular domain, His tag; W352-cPro1.ECD.His; not shown: His tag
Procedure: The affinity of W3525 to cynomolgus monkey CD40 was determined using Biacore T200. The process of immobilization was the same as that of Biacore 8K. The antibody W3525 was diluted to 33.35 nM in running buffer (1×HBS-EP+) and was captured onto Fc2 at a flow rate of 10 μL/min for 60 s. Seven concentrations (0, 1.56, 3.13, 6.25, 12.5, 25 and 50 nM) of analyte W352-cynoPro1.ECD.His were injected orderly to Fc1 and Fc2 at a flow rate of 30 μL/min for an association phase of 240 s, followed by 300 s dissociation. After each cycle, glycine solution (10 mM, pH 1.5) as regeneration buffer was injected to regenerate the chip.
Molecular weight of 29 kDa was used to calculate the molar concentration of W352-cPro1.ECD.His.

[14] = molecular target: T1, human CD40, full-length, on cells; assay: FACS on W352-CHOK1.hPro1.A7 cells (CHO-K1 with full-length human CD40); W352-CHOK1.hPro1.A7 cells
Procedure: as §1, §2

W352-hPro1.ECD.His = molecular target: T11, W352-hPro1.ECD.His (human, UniProt P25942 21-193); assay: SPR, Biacore 8K; antibody captured by goat anti-human Fc; analyte W352-hPro1.ECD.His; 1:1 model
T11 construct: range 21-193; Also used for the 'recombinant human CD40 extracellular domain' coated in the ELISAs of 3.4 and 3.5; also called Human CD40 extracellular domain, His tag; human CD40 free protein; not shown: His tag
T11 sequence (P25942 21-193 limits assumed): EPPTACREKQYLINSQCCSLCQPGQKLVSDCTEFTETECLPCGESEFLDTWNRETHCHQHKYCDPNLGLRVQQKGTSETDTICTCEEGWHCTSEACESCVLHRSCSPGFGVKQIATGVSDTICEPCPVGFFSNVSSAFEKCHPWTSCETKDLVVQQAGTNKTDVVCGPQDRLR
Procedure: The affinity of W3525 to human CD40 was determined using Biacore 8K. The activator was prepared by mixing 400 mM EDC and 100 mM NHS immediately prior to injection. The CMS sensor chip was activated for 420 s with the activator at a flow rate of 10 μL/min. Goat anti-human Fc IgG (30 μg/mL in 10 mM NaAc, pH 4.5) was then injected to the channels for 420 s at a flow rate of 10 μL/min The chip was deactivated by 1 M ethanolamine-HCl at a flow rate of 10 μL/min for 420 s. After immobilization, the antibody W3525 was diluted to 66.7 nM in running buffer (1×HBS-EP+) and was captured onto the channel Fc4 at a flow rate of 10 μL/min for 30 s. Seven concentrations (0, 1.5625, 3.125, 6.25, 12.5, 25 and 50 nM) of analyte W352-hPro1.ECD.His were injected orderly to the channels at a flow rate of 30 μL/min for an association phase of 90 s, followed by 300 s dissociation. Glycine solution (10 mM, pH 1.5) as regeneration buffer was injected following dissociation phase to regenerate the chip.
Molecular weight of 29 kDa was used to calculate the molar concentration of W352-hPro1.ECD.His.

T1 sequence (P25942 21-277): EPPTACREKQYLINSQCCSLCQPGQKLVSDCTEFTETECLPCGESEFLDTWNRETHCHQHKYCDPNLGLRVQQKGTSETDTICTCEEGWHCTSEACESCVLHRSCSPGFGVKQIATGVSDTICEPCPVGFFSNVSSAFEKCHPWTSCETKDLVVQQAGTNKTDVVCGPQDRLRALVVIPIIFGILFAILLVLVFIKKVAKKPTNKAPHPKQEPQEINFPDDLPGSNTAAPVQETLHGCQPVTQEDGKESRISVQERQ

EC50, NFκB reporter assay, W352-Ramos.NFκBRE.luc [1]: 1.4 nM
EC50, NFκB reporter assay, W352-U937.hPro1.NFκBRE.luc [1]: 1.3 nM
EC50, B cell proliferation [2]: 0.16 nM
EC50, CD54 expression, DC activation assay [3]: 0.35 nM
EC50, CD80 expression, DC activation assay [3]: 0.37 nM
EC50, CD83 expression, DC activation assay [3]: 0.16 nM
EC50, CD86 expression, DC activation assay [3]: 0.56 nM
EC50, IL-12p40 release, DC activation assay [3]: 0.47 nM
EC50 [4]: 0.16 nM
EC50 [5]: 0.36 nM
binding result [6]: no binding (tested: 66.7 nM)
binding result [7]: no binding (tested: 66.7 nM)
binding result [8]: no binding (tested: 66.7 nM)
binding result [9]: no binding (tested: 66.7 nM)
binding result [10]: no binding
binding result [11]: no binding
binding result (W352-mPro1.ECD.His): no binding
EC50 [12]: 2.4 nM
IC50 [13]: 1.4 nM
Kd (W352-cynoPro1.ECD.His): 8.47 nM
koff (W352-cynoPro1.ECD.His): 0.00377 s⁻¹
kon (W352-cynoPro1.ECD.His): 444000 M⁻¹ s⁻¹
EC50 [14]: 1.1 nM
Kd (W352-hPro1.ECD.His): 7.12 nM
koff (W352-hPro1.ECD.His): 0.00405 s⁻¹
kon (W352-hPro1.ECD.His): 569000 M⁻¹ s⁻¹
B1: W3525-1.9.16-P5-uIgG2K (antibody, V domains shown)
VH: QVQLVQSGAEVKKPGSSVKVSCKASGDTVSSYGISWVRQAPGQGLEWMGGSIPFFGTPNYAQKFQGRVTFTADESTSTAYMELSSLRSEDTAVYYCARARRGYSYGHYHYYAMDVWGQGTTVTVAS
VL: DTVMTQSPLSLPVTPGEPASISCRSGQSLLHNNAYNYLDWYLQKPGQSPQLLIYLGSNRASGVPDRFSGSGSGTDFTLKISRVEAEDVGVYYCMQALQTPLSFGGGTKVEIKR
notes: Fully human IgG2 kappa with wild-type human IgG2 constant region; also called W3525 antibody; final lead antibody
